{"source": "the DeepSol protein solubility set", "data": [{"assay": "soluble on expression in E. coli; label from the status in PepcDB or PDB records", "values": [{"sequence": "SLRASDDKALQYAIAEITEIATGFGLDFYPMRYEICPAEIIYTFGAYGMPTRFSHWSFGKQFFRMKLQYDLGLSKIYELVINSDPCYAFLLDTNSLIQNKLIVAHVLAHCDFFKNNIRFSNTKRDMVESMSATAERVKAYEHKYGKEEVETFLDAVLAIQEHIDPSLMRPKLAWSIDDLEEEEVEKKKVSQYDDLWNLDNRNKKRERSNVRKKKKIPPQPEKDLLLFIEEYSRELEDWQRDILTMMREEMLYFWPQLETKIMNEGWASYY", "soluble on expression in E. coli": "soluble"}, {"sequence": "MNRRDFLQFGLRGIVVAGLGKGFYNTTSEQVEIVRTSVKIRNLPAALQGLKIGLLTDLHASFVVSSETIRSAGRLLMAEKPDLIVMTGDYISGSTRFLSGSVGQFKKEYLSKCIDALSGLKAPLGIYGVLGNHDFWSGPESVKAICEAFTRQMGMVWLRNSSVEIRRGRGSLHLLGVDDYWEPSCSLAAACKGVDTDGIKILLSHNPDINDEIFLLRERIDLVLSGHTHGGQVVVPFLGQPVMPSKFGQKYRAGLVRDGDRQTYISRGVGCLLAPIRLNCPPEATVLTLTLEHHHHHH", "soluble on expression in E. coli": "soluble"}, {"sequence": "MFRRIFDAFNFMGSDEESTAAPVDQEGQEQLIDEDGWVNFNHPTESGDSDEFAFIENPEILEMGDETTIEVEMRTTPCPEVEAIKRREEYNLAKAKTAFRNHLESVMFADPDSGKDVRTFKSTHGSGRSVPTASGSIRRLNTQSQRSKKSSGKSNDRKTHRVSDLQLADA", "soluble on expression in E. coli": "not soluble"}, {"sequence": "VVRRLTSPRLEFEAAAIYEYPEHLRSFLNDLPTRPGVYLFHGESDTMPLYIGKSVNIRSRVLSHLRTPDEAAMLRQSRRISWICTAGEIGALLLEARLIKEQQPLFNKRLRRNRQLCALQLNEKRVDVVYAKEVDFSRAPNLFGLFANRRAALQALQTIADEQKLCYGLLGLEPLSRGRACFRSALKRCAGACCGKESHEEHALRLRQSLERLRVVCWPWQGAVALKEQHPEMTQYHIIQNWLWLGAVNSLEEATTLIRTPAGFDHDGYKILCKPLLSGNYEITELDPANDQRAS", "soluble on expression in E. coli": "soluble"}, {"sequence": "MGSDKIHHHHHHDPVSDITDLNYWKTPEQFDSFVFGLHSRFRSHSWNMFLLGEARSDVFGGIPFGGEATQGMERFPYNTLNAENPGISGFGDLYQNINQMNLFISRTLHTDVLTESARNYYLGQVYGLRAYYMYQLYRSWGDVVFTEEPSLGFEVGKLAKAATPAAEIFEQVKKDIESSLSYFGSDYTIKEKKSLWSKAATLMLKADVYLWSAHRDGGEGDARTAKNALVDIQNNISRSNLDLMDTYQGVFAYDNKGNKEIIFTIHNELFEYNLWNGNNDLFPQADYLGKFYNADGTLINTSVENNFGIMRLMVKLENFKKFLPGDTRRDVTLKDVYNKVENGKLELVGVYPHKYWGVMNGSTRVRCDDYPIYRYSDLLLMLAEAKVLLGEDPATEINRVRRRAFGDAYDASTVGFPNQEVDKRPADAVLQERLFEFMLEGKRWYDLRRFGDSYVLDYTPAEPARLLWPINQGALTNNPLLKQTVGY", "soluble on expression in E. coli": "not soluble"}, {"sequence": "SNAMKQLTILGSTGSIGNSTLSVVRANPELFKVTALVAGRNVREMAQQCLEFSPRYAAMSDEHSAKSLRLLLAEQGSDTEVYSGETAACELAALDDVDQVMAAIVGIAGLPSTLAAIRAGKQVLLANKESLITCGKLFMDEVKRSRAQLLPIDSEHNAIFQSLPERIQRQLGYSSLNENGVSRIILTGSGGPFRETPLSQFSDVTPDQACAHPNWSMGRKISVDSATMMNKGLEYIEARWLFNASAEQIEVVLHPQSVIHSMVRYHDGSILAQMGTPDMRTPIAHAMAYPMRVSSGVAPLDFCKVGALTFTTPDYQRYPCLKLAIDACNAGQAATTALNAANEISVMAFLDSKIRFTDIEVINRTVVEGLLLSEPTSVEEVLVIDRKARDVAAQVIAKLNN", "soluble on expression in E. coli": "soluble"}, {"sequence": "EAIGASVIPMSAGNTEKQIMIMQDYKTTALVCTPSYAITIADRMEKMGVDPKSLSLKVGLFGAEPWSEAMRKEIENRLFVSATDNYGLSEIIGPGVAGDCEYKCGMHIS", "soluble on expression in E. coli": "not soluble"}, {"sequence": "MEVGMIPRVYLGHEWFGAERILSEYQVPEDCGAQVLFLGIPRNAPEDGGNIEALEYEAYPEMAIKEMEKIRQETIEKFGVKEVFIHHRLGLVKIGEPSFLVLAVGGHREETFKACRYAVDETKKRVPIWKKEIFKEGKGEWVLGEKKNASGQTK", "soluble on expression in E. coli": "soluble"}, {"sequence": "ITKAINYMAKRRIGALLTIERDTGMGDYIETGIPLNAKVSSELLINIFIPNTPLHDGAVIMKNNEIAAAACYLPLSESPFISKELGTRHRAAVGISEVTDSLTIIVSEETGGVSVAKNGD", "soluble on expression in E. coli": "not soluble"}, {"sequence": "MTDRGIVFNIQHFSIHDGPGIRTTVFLKGCPLRCPWCANPESQQKAPEQMLTSDGLNTKIVGEEKTVDEVIEEVLKDLDFYEESGGGMTLSGGEIFAQFDFALALLKAAKAAGLHTAIETTAFAKHEQFVTLVDYVDFIYTDLKHYNQLRHQKVTGVRNDLIIKNIHYAFQAGKEIVLRIPVIPQFNDSLDDAKAFSELFNQLEIDQVQLLPFHQFGENKYKLLGREYEMAEVKAYHPEDLADYQAVFLNHNIHCYF", "soluble on expression in E. coli": "not soluble"}, {"sequence": "MSLSKELAVTPKQSLEAVVSYFRSAHKEPDSAVRAIHHQPASEGEFSEMPAAVDSRLRAALAKRGIERLYTHQADAFDQIQAGKHVVIVTPTASGKTLCYNLPVLNLLLRDEGARAMYLFPTKALAEDQLHEFQGAVEEMGSEIRAFTYDGDTPQDARRAIRSRANVVLTNPDMLHSGILPHHTRWARYFENLRYIVIDELHYYRGVYGSHLANLLRRLSRICEFYNSKPQFICCSATIANPKELAEALTGEPFELVERNGAPRGEKFFIFYNPPVVNRQLGIRRSYIAETRRMALKFIENNLQTLVFANNRLATEVLVTYLKDACDRGPIPSETVRGYRGGYLPRERREIEQSLRAGKIRAVVATNALELGIDIGSLDAVVMAGYPGTIASSWQRAGRAGRRQSTSAAVMVASSAPLDQYIVEHPDYFFGRSPEHAYINPENLEIFLAHLKCAAFELPLRDDEKFGRHDLAEICRYLEEAGFLHHSAAAWHWTSDTYPADATSLRSVTSDNFVVVDITGEAKVIAEVSFPTALTTLHEKAIYLHEARQFHVERFDYDQRKAYVKSVDCDYYTDAIDYTQVKVLEEMEGEPQNGARRLHGDVRVTRQIVGFKKIKFYTMENVGAGKLNMPEQEMHTTAFWLHFPAAFLARFAEFTPTEKQSGISGLGNALRTVASLLLMCDPRDLGVALSEEIAGGLEAFEPNLYLYDNYPGGIGQSGPLYRLAPQLLRQTAGLLAACACEAGCPSCVGPSGETGERGKLVAARILAELMGTAEQITAEGHHHHHH", "soluble on expression in E. coli": "soluble"}, {"sequence": "MGSDKIHHHHHHMKKIQIVDDSQSNIRKLENLLNTHFLVTVARTGEEAVRMAKENVPDLILLEVALPDMDGFETCRRLKAQVESAKIPVIFVSSLKEKEAVIKGFEVGGQDYIIKPFEARELVLRMKSLLKQESSRKRLEQHVKVLEEQNEKLKGKIQKVDRLSRVDFLTNLMNRRDMQEKIRAEINRSIRHGRSFTLAIVDIDFFKNINDTYGHDCGDHVLKHFVSTLKNSVRSSDYVSRWGGEEFLLLFPETKLEEGKRACEKIRQKINESPVIYKGMSISITATFGISEYRPSVRIEELIKAADDALYKGKKTGKNQVVVQSM", "soluble on expression in E. coli": "not soluble"}, {"sequence": "MGSDKIHHHHHHMDFLDFEKVFSFYSKATKKGFSPFFVPALEKAEEPAGNFFLDRKGNLFSIREDFTKTVLNHRKRYSPDSQIKVWYADFVYRYSGSDLVAEYQLGLEKVPRNSLDDSLEVLEIIVESASEFFEGPVIVEIGHTGVYEDLLKEIPKDLHEKVLNLIDTKNLAEIEFLSHMKKIDLSRVEKIIEDSIYRRSPEHLKTMDLPLSVREDLLSASSFLQEKFPTVSVEIDLTLARTIEEYCGLIFTIYDTSSSRLVAAGGEYTVNGEKGVGGSIFLEGKTC", "soluble on expression in E. coli": "not soluble"}, {"sequence": "MGVTLAKGGNVSLSKAAPNLTQVMIGLGWDARSTTGAPFDLDASALLCREGRVLGDEWFVFYNQLKSPDGSVEHTGDNLTGEGEGDDESILVDLSTVPAQVDKIVFPVSIHEADNRGQTFGQVSNAFIRVVNQADGQELARYDLSEDASTETAMIFGEVYRYGGEWKFRAVGQGYASGLRGIVQDFGVSVS", "soluble on expression in E. coli": "not soluble"}, {"sequence": "MGIRELNLTKEQHEWLNGWLELWAHGLSGRLEKRMSSVIAKFMESIEPGRVMTRPMCNDDDGMLISQVVDSVMYIDKKAFGILLSYYAHGSSKHAIASYYHRVARPRKMLCRGGGRIQKPSLATCRREVDEILNASLFMIYPVLDSAFKNRKRVEKIKHVALEHHHHHH", "soluble on expression in E. coli": "soluble"}, {"sequence": "MTEYGGGEVYLLDLDSVVDGSALRMISSGGLRGRVLIHSALVDYLYSEAKRGRSAGYAGLAELSRLMDAGVGDVEIVVVEDDARVQPRDEGELKSVLRRYALRVGATLVTSDPVQARAARALGVSVLFTGRSRTGRIRIEEFFDGRTMSVHLKEGVPPLAKVGKPGSWMFVSLSDKPLTRAEIEEIAREIIEASALEEEGFIEIDRSGSTIVQLKDYRIVITRPPLSDGWEVTAVKPVAKLRLEDYSLPEKLYNRLLERAEGILIAGAPGMGKTTFAQALATFYAEQGKVVKTIESPRDMRLPPNVTQYSKNYADLGELHDILLLSRPDYTVYDELRSDEDFQLYVDLRLAGIGMIGVVHATTPIDAVQRFLRRVELGMIPSIIDTVIFIDSGEVSKVYELSITVKLPTGLREAELSRPVVEVRDFITGELEYEIYTFGEQTMVVPVRERRGRGEAAILGAIRKLLPDAEVEVRDETLIVRLPPRSSRVTARRLKRAKKLAEKHGYDIRFMPL", "soluble on expression in E. coli": "soluble"}, {"sequence": "AVTIPPARHAEPQRWIARLPGFKISENKAQALWELAGKNIEGLQTDKALPTDWQAWRSEPQNAALLENLKTFFAQMPSEDEAAQGSDGIN", "soluble on expression in E. coli": "not soluble"}, {"sequence": "MAHHHHHHMYGGNFSIPEFILKHEKYEKERLKIKRNKYLKRNIYKDNYSFIYFIFLHNINEHVEITTNNFDLLKGQLEELKKNTNNHIKGIILKNVIKSNNNNYSYFSKLYIPITNIYTCMPDNICSREKNKNPESKPFCDLIVSGYKNQMMNKIYEKFKKLGNQYV", "soluble on expression in E. coli": "not soluble"}, {"sequence": "MSLTYLIKVLELFSGVGSFSISLNTLGIEHEIVGFSETRKTATQLFCKLHNKKESENLGDVRNVSAKDLDVDLLVFGSPCQSFTRAGKQGGGLKGSDTRSALMWEAVRIMEECKPKWIVWENVPDAISRKNMPNFQNYMDELDSLNYNTYYKVLNAHELGSAQKRKRLFSISIRKDIDNGKFEFLDLTREPKHLETYLENNDEGHHHHHH", "soluble on expression in E. coli": "soluble"}, {"sequence": "MGSSHHHHHHSSGLVPRGSMNNIYPLVICGPSGVGKGTLIKKLLNEFPNYFYFSVSCTTRKKREKEKEGVDYYFIDKTIFEDKLKNEDFLEYDNYANNFYGTLKSEYDKAKEQNKICLFEMNINGVKQLKKSTHIKNALYIFIKPPSTDVLLSRLLTRNTENQEQIQKRMEQLNIELHEANLLNFNLSIINDDLTLTYQQLKNYLLNSYIHLNNHTRN", "soluble on expression in E. coli": "soluble"}, {"sequence": "MAHHHHHHMSSDTMPFKLVEPFVLFHTIFSDDFQHPQVAMITQACGSHSTASNQSTSHFLQIFFDFPLHVEPNEAPTDLIFLCKWGTSHSSHTPPHGNDVNVTRTNFLFRQCSQKKSATDY", "soluble on expression in E. coli": "not soluble"}, {"sequence": "MSIRNSASRDDTSASVEDSILDAARSCILDFGLRRTTLAEVARRAGVSRPTVYRRWSDTRAVVADLMTREIAAVMPEFSVEESVHRQLVDAVVHVSTEVRDHPLFVKILRSDQELFTTYILERLGTSQRAIIDQVAFAVSTGQDQGSIRAGDSRHIATMVLLIAQSAVQSAVMVAEELPGDALTEQLRHAVGAYLAPDVAVTHPTDRGDR", "soluble on expression in E. coli": "not soluble"}]}]}
